This is an account of results in publication PMC3399532 (Prion, 2012).

This assay addresses MoPrP-Fc (mouse, UniProt P04925 23-230). Put plainly: ELISA.

MoPrP-Fc, sequence (P04925 23-230): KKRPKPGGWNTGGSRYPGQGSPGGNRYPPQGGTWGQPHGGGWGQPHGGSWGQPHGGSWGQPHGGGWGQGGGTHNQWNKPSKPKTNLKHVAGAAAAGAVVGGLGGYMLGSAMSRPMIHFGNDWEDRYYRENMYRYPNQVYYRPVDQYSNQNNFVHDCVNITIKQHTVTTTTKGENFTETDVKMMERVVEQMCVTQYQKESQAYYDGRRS

B1: mouse (Mo) Dpl (26–155) (domain or fragment)
chain: ARGIKHRFKWNRKVLPSSGGQITEARVAENRPGAFIKQGRKLDIDFGAEGNRYYAANYWQFPDGIYYEGCSEANVTKEMLVTSCVNATQAANQAEFSREKQDSKLHQRVLWRLIKEICSAKHCDFWLERG
For B1, the binding result was “binds”.
